According to patent US20050019801A1, “Stem cell-based methods for identifying and characterizing agents” (Curis, Inc., priority 2003, published 2005):
Entries after “also recorded” stand apart in the source; their conditions may differ.

What was measured:
[1] = tested on: (HB9-GFP)-mouse embryonic stem cells; experiment: Motor neuron differentiation of (HB9-GFP)-mouse embryonic stem cell embryoid bodies, GFP by fluorescent or confocal microscopy; format: cell-based; conditions: one day 100 nM RA and 50 ng/ml Sonic hedgehog protein, then three days with agent, fluorescent microscopy
Procedure: Briefly, mouse embryonic stem cells expressing GFP under the control of the HB9 promoter were cultured to confluence, trypsinized, and allowed to reaggregate to form embryoid bodies. The embryoid bodies were treated for one day with 100 nM RA and 50 ng/ml Sonic hedgehog protein. Subsequently, the embryoid bodies were cultured for three days with a previously identified hedgehog, small molecule agonist. Cultured embryoid bodies were analyzed by fluorescent and bright filed microscopy (FIG. 2).
As outlined above, the stem cell based methods of the invention can be used in many ways including, but not limited to, as a primary screen to identify agents that promote differentiation without regard to the mechanism of action; as a primary screen to identify agents that promote differentiation and that may act by agonizing or antagonizing a particular signaling pathway; or as a secondary screen to confirm that an agent that agonizes or antagonizes a particular signaling pathway also functions to promote differentiation along a particular lineage. […] Briefly, several small molecules were previously identified in a screen to identify agonists of the hedgehog signaling pathway. […] Mouse embryonic stem cells expressing GFP under the control of the HB9 promoter were cultured to confluence, trypsinized, and allowed to reaggregate to form embryoid bodies. The embryoid bodies were treated for one day with 100 nM RA and 50 ng/ml Sonic hedgehog protein. Subsequently, the embryoid bodies were cultured for three days with one of three previously identified hedgehog, small molecule agonists. Cultured embryoid bodies were analyzed by fluorescent microscopy for expression of GFP (FIG. 3).
Mouse embryonic stem cells were cultured and treated as described above. Following three days of culture in the presence of the hedgehog agonist, embryoid bodies were analyzed by confocal microscopy to allow analysis of sections throughout the embryoid body. Confocal images were compared to confocal images of embryoid bodies cultured in the absence of hedgehog agonist.
By way of example, known antagonists of BMP signaling include noggin, chordin, follistatin, cerberus, Dan, gremlin, ectodin, sclerostin, and ventroptin. Known antagonists of Wnt signaling include sFRP, WIF, dkk, and Cerberus. Briefly, mouse embryonic stem cells expressing GFP under the control of the HB9 promoter were cultured to confluence, trypsinized, and allowed to reaggregate to form embryoid bodies. The embryoid bodies were treated for one day with 100 nM RA and 50 ng/ml Sonic hedgehog protein. Subsequently, the embryoid bodies were cultured for three days with one of the following: 98 (a small molecule hedgehog agonist), chordin (a BMP antagonist), noggin (a BMP antagonist), gremlin (a BMP antagonist), Dan (a BMP antagonist), PTN (a neurotrophic factor), sFRP2 (a Wnt antagonist), dkk1 (a Wnt antagonist). Cultured embryoid bodies were analyzed by fluorescent microscopy for expression of GFP (FIG. 9).
Embryoid bodies were differentiated as described above for FIG. 9. […] Note, however, the morphological differences among cells types differentiated using each agent. Embryoid bodies treated with a Wnt antagonist were flatter than embryoid bodies treated with a BMP antagonist.

[2] = tested on: Mouse embryonic stem cells (embryoid bodies); experiment: Combinations of agents promoting motor neuron differentiation from embryoid bodies, HB9 expression; format: cell-based; conditions: agent plus the same sub-threshold concentration of small molecule hedgehog agonist (Ag1.3)
Procedure: BMP antagonists and Wnt antagonists synergized with hedgehog agonists to promote motor neuron differentiation from embryoid bodies. Briefly, mouse embryonic stem cells were cultured, as described above.

Row | Molecule | motor neuron differentiation, as measured by expression of the HB9 promoter-driven transgene (GFP) [1] | motor neuron differentiation, as measured by expression of HB9 [2] | motor neuron differentiation, as measured by expression of the HB9 promoter-driven transgene (GFP) ([1]; listed as sFRP)
1 | noggin: a BMP antagonist (protein, UniProt Q13253 28-232, looked up) Noggin: QHYLHIRPAPSDNLPLVDLIEHPDPIFDPKEKDLNETLLRSLLGGHYDPGFMATSPPEDRPGGGGGAAGGAEDLAELDQLLRQRPSGAMPSEIKGLEFSEGLAQGKKQRLSKKLRRKLQMWLWSQTFCPVLYAWNDLGSRFWPRYVKVGSCFSKRSCSVPEGMVCKPSKSVHLTVLRWRCQRRGGQRCGWIPIQYPIISECKCSC | robustly promoted motor neuron differentiation; also recorded: differentiated along a motor neuron lineage | promoted motor neuron differentiation | 
2 | gremlin: a BMP antagonist (protein, UniProt O60565 25-184, looked up) Gremlin-1: KKKGSQGAIPPPDKAQHNDSEQTQSPQQPGSRNRGRGQGRGTAMPGEEVLESSQEALHVTERKYLKRDWCKTQPLKQTIHEEGCNSRTIINRFCYGQCNSFYIPRHIRKEEGSFQSCSFCKPKKFTTMMVTLNCPELQPPTKKKRVTRVKQCRCISIDLD | robustly promoted motor neuron differentiation; also recorded: differentiated along a motor neuron lineage | promoted motor neuron differentiation | 
3 | sFRP2: a Wnt antagonist (protein, UniProt Q96HF1 25-295, looked up) Secreted frizzled-related …: LFLFGQPDFSYKRSNCKPIPANLQLCHGIEYQNMRLPNLLGHETMKEVLEQAGAWIPLVMKQCHPDTKKFLCSLFAPVCLDDLDETIQPCHSLCVQVKDRCAPVMSAFGFPWPDMLECDRFPQDNDLCIPLASSDHLLPATEEAPKVCEACKNKNDDDNDIMETLCKNDFALKIKVKEITYINRDTKIILETKSKTIYKLNGVSERDLKKSVLWLKDSLQCTCEEMNDINAPYLVMGQKQGGELVITSVKRWQKGQREFKRISRSIRKLQC | differentiated along a motor neuron lineage | promoted motor neuron differentiation | robustly promoted motor neuron differentiation
4 | PTN: a neurotrophic factor (protein, UniProt P21246 33-168, looked up) Pleiotrophin: GKKEKPEKKVKKSDCGEWQWSVCVPTSGDCGLGTREGTRTGAECKQTMKTQRCKIPCNWKKQFGAECKYQFQAWGECDLNTALKTRTGSLKRALHNAECQKTVTISKPCGKLTKPKPQAESKKKKKEGKKQEKMLD | robustly promoted motor neuron differentiation |  | 
5 | dkk1: a Wnt antagonist (protein, UniProt O94907 32-266, looked up) Dickkopf-related protein 1: TLNSVLNSNAIKNLPPPLGGAAGHPGSAVSAAPGILYPGGNKYQTIDNYQPYPCAEDEECGTDEYCASPTRGGDAGVQICLACRKRRKRCMRHAMCCPGNYCKNGICVSSDQNHFRGEIEETITESFGNDHSTLDGYSRRTTLSSKMYHTKGQEGSVCLRSSDCASGLCCARHFWSKICKPVLKEGQVCTKHRRKGSHGLEIFQRCYCGEGLSCRIQKDHHQASNSSRLHTCQRH | robustly promoted motor neuron differentiation; also recorded: differentiated along a motor neuron lineage |  | 
